Broadly, the Kd is the equilibrium constant for the complex coming apart.

Where two headings read alike, the source gives them in different places.

Among the data in paper PMC6765145 are binding result and Kd values, retold here.

Assay in all cases: EMSA
A general note: Mobility shift assays separate free from complexed probe on a gel.

The target in data set [1] is T1, Aca2 (Pectobacterium carotovorum temperate …, UniProt H9C180 1-116).
T1 sequence: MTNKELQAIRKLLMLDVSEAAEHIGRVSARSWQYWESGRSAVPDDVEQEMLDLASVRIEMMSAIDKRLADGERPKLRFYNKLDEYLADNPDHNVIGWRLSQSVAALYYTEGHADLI

Data set [2] deals with T1, Aca2. This is another data set of the same source.
Data set [3] addresses T1, Aca2. This is another data set of the same source.

B1: scIR1-wtIR2 promoter probe (dsDNA)
DNA 1: CACGAATGCGGCCTTAGCGATTAAAAAATATGAAATGCCTTGCTTGAGACACGAGAGTCTCATATAATTTATTCATCGGTTCGAGATGGCTCGAATCGCTCCTAACGAGGATTCCACAATGC
DNA 2: GCATTGTGGAATCCTCGTTAGGAGCGATTCGAGCCATCTCGAACCGATGAATAAATTATATGAGACTCTCGTGTCTCAAGCAAGGCATTTCATATTTTTTAATCGCTAAGGCCGCATTCGTG
With B1, in data set [1], the binding result is given as “no binding”.

B2: wtIR1-scIR2 promoter probe (dsDNA)
DNA 1: CACGAATGCGGCCTTAGCGATTAAAAAATATGAAATGCCTTGCTTGTTCGCGATTGCGAACATATAATTTATTCATCGGAGACTACTGCAGGTCTTCGCTCCTAACGAGGATTCCACAATGC
DNA 2: GCATTGTGGAATCCTCGTTAGGAGCGAAGACCTGCAGTAGTCTCCGATGAATAAATTATATGTTCGCAATCGCGAACAAGCAAGGCATTTCATATTTTTTAATCGCTAAGGCCGCATTCGTG
For the molecule B2, in data set [2], binding was characterised by a dissociation constant (Kd) of 1.07 nM.

B3: scIR1-scIR2 promoter probe (dsDNA)
DNA 1: CACGAATGCGGCCTTAGCGATTAAAAAATATGAAATGCCTTGCTTGAGACACGAGAGTCTCATATAATTTATTCATCGGAGACTACTGCAGGTCTTCGCTCCTAACGAGGATTCCACAATGC
DNA 2: GCATTGTGGAATCCTCGTTAGGAGCGAAGACCTGCAGTAGTCTCCGATGAATAAATTATATGAGACTCTCGTGTCTCAAGCAAGGCATTTCATATTTTTTAATCGCTAAGGCCGCATTCGTG
Consider B3, for which the binding result in data set [3] is reported as “no binding”.
